Where two headings read alike, the source gives them in different places.
Experiments:
[1] = Stability of U-INTP in samples after three days at room temperature, without and with stabilizer (Table 4); assay type: physicochemical; parameters: U-INTP test result, Immed.: unit not given beside the values; conditions: for U-INTP test result, 3 days + stabilizer / U-INTP, 3 days + stabilizer, in % of immed.-sample: with stabilizer
Excerpt: Two parallel tests were done for each sample.

[2] = Storage stability of analytes in serum sample without stabilizer (background statement); assay type: physicochemical; conditions: room temperature
Excerpt: In connection with said determinations and sample handling the poor stability of gastrin-17 has proven to be a problem, due to the fact that it decomposes rapidly in the sample. […] This is in contrast to pepsinogen I and II, which retain their activity at room temperature for many days, and Helicobacter pylori antibodies, which survive for at least three days under refrigerator conditions.

[3] = Stability of the same analytes in serum samples, with and without 5% DMSO (Table 3); assay type: physicochemical
Excerpt: Table 3 is a test corresponding to the test of Table 2, but where the ten samples to be tested were serum samples rather than plasma samples.

[4] = room temperature; for effect of adding DMSO on the activity: EDTA-plasma samples, day 0 and day 3
Experimental: The effect of adding DMSO was tested on pepsinogen I, pepsinogen II, Helicobacter pylori antibodies and gastrin-17. The results are indicated at day 0 and day 3.

[5] = Sample 1, three days at room temperature
[6] = Sample 1 parall., three days at room temperature
[7] = Sample 2, three days at room temperature
[8] = Sample 2 parall., three days at room temperature
[9] = EDTA-plasma sample PL466s, 0% DMSO, day 0
[10] = EDTA-plasma sample PL466s, 0% DMSO, day 3
[11] = EDTA-plasma sample PL466s, 5% DMSO, day 0
[12] = EDTA-plasma sample PL466s, 5% DMSO, day 3
[13] = EDTA-plasma sample PL467s, 0% DMSO, day 0
[14] = EDTA-plasma sample PL467s, 0% DMSO, day 3
[15] = EDTA-plasma sample PL467s, 5% DMSO, day 0
[16] = EDTA-plasma sample PL467s, 5% DMSO, day 3
[17] = EDTA-plasma sample PL471s, 0% DMSO, day 0
[18] = EDTA-plasma sample PL471s, 0% DMSO, day 3
[19] = EDTA-plasma sample PL471s, 5% DMSO, day 0
[20] = EDTA-plasma sample PL471s, 5% DMSO, day 3
[21] = EDTA-plasma sample PL472s, 0% DMSO, day 0
[22] = EDTA-plasma sample PL472s, 0% DMSO, day 3
[23] = EDTA-plasma sample PL472s, 5% DMSO, day 0
[24] = EDTA-plasma sample PL472s, 5% DMSO, day 3
[25] = EDTA-plasma sample PL473s, 0% DMSO, day 0
[26] = EDTA-plasma sample PL473s, 0% DMSO, day 3
[27] = EDTA-plasma sample PL473s, 5% DMSO, day 0
[28] = EDTA-plasma sample PL473s, 5% DMSO, day 3

For “collagen I aminoterminal telopeptide [U-INTP]”, the “U-INTP test result, Immed.” value ([1]; Sample 1, immediately) was 200, the “U-INTP test result, 3 days no stabilizer” value [1, 5] was 189 and the “U-INTP, 3 days no stabilizer, in % of immed.-sample” value (from here on “U-INTP, 3 days no stabilizer, in %”) [1, 5] was 94.5%. The “U-INTP test result, 3 days + stabilizer” value [1, 5] was 202, the “U-INTP, 3 days + stabilizer, in % of immed.-sample” value (shortened to “U-INTP, 3 days + stabilizer, in %”) [1, 5] was 101.0% and the “U-INTP test result, Immed.” value ([1]; Sample 1 parall., immediately) was 199. For the same molecule, the “U-INTP test result, 3 days no stabilizer” value [1, 6] was 187, the “U-INTP, 3 days no stabilizer, in %” value [1, 6] was 94.0% and the “U-INTP test result, 3 days + stabilizer” value [1, 6] was 209. The “U-INTP, 3 days + stabilizer, in %” value [1, 6] was 105.0%, the “U-INTP test result, Immed.” value ([1]; Sample 2, immediately) was 113 and the “U-INTP test result, 3 days no stabilizer” value [1, 7] was 115. For the same molecule, the “U-INTP, 3 days no stabilizer, in %” value [1, 7] was 101.8%, the “U-INTP test result, 3 days + stabilizer” value [1, 7] was 144 and the “U-INTP, 3 days + stabilizer, in %” value [1, 7] was 127.4%. For the same molecule, the “U-INTP test result, Immed.” value ([1]; Sample 2 parall., immediately) was 118, the “U-INTP test result, 3 days no stabilizer” value [1, 8] was 114 and the “U-INTP, 3 days no stabilizer, in %” value [1, 8] was 96.6%. The “U-INTP test result, 3 days + stabilizer” value [1, 8] was 136 and the “U-INTP, 3 days + stabilizer, in %” value [1, 8] was 115.3%.

With pepsinogen I [PGI] the “time for which activity is retained” value [2] was “many days”, the PGI concentration ([3]; serum sample PL411s, 0% DMSO) was 283.6 µg/L and the PGI concentration ([3]; serum sample PL411s, 5% DMSO) was 296.0 µg/L. The PGI concentration ([3]; serum sample PL420b, 0% DMSO) was 75.5 µg/L, the PGI concentration ([3]; serum sample PL420b, 5% DMSO) was 79.3 µg/L and the PGI concentration ([3]; serum sample PL426s, 0% DMSO) was 49.7 µg/L. For the same molecule, the PGI concentration ([3]; serum sample PL426s, 5% DMSO) was 50.6 µg/L, the PGI concentration ([3]; serum sample PL438s, 0% DMSO) was 158.6 µg/L and the PGI concentration ([3]; serum sample PL438s, 5% DMSO) was 156.0 µg/L. The PGI concentration ([3]; serum sample PL439s, 0% DMSO) was 67.6 µg/L, the PGI concentration ([3]; serum sample PL439s, 5% DMSO) was 68.5 µg/L and the PGI concentration ([3]; serum sample PL447b, 0% DMSO) was 6.0 µg/L. It also gave a PGI concentration ([3]; serum sample PL447b, 5% DMSO) of 6.0 µg/L, a PGI concentration ([3]; serum sample PL454s, 0% DMSO) of 100.6 µg/L and a PGI concentration ([3]; serum sample PL454s, 5% DMSO) of 102.3 µg/L. For the same molecule, the PGI concentration ([3]; serum sample PL455b, 0% DMSO) was 79.2 µg/L, the PGI concentration ([3]; serum sample PL455b, 5% DMSO) was 81.5 µg/L and the PGI concentration ([3]; serum sample PL457b, 0% DMSO) was 101.1 µg/L. The PGI concentration ([3]; serum sample PL457b, 5% DMSO) was 106.9 µg/L, the PGI concentration ([3]; serum sample PL458s, 0% DMSO) was 77.1 µg/L and the PGI concentration ([3]; serum sample PL458s, 5% DMSO) was 80.1 µg/L. For the same molecule, the PGI concentration [4, 9] was 58.8 µg/L, the PGI concentration [4, 10] was 76.9 µg/L and the PGI concentration [4, 11] was 60.5 µg/L. It also gave a PGI concentration [4, 12] of 77.4 µg/L, a PGI concentration [4, 13] of 73.3 µg/L and a PGI concentration [4, 14] of 94.9 µg/L. It also gave a PGI concentration [4, 15] of 76.8 µg/L, a PGI concentration [4, 16] of 98.8 µg/L and a PGI concentration [4, 17] of 60.6 µg/L. It also gave a PGI concentration [4, 18] of 85.5 µg/L, a PGI concentration [4, 19] of 67.6 µg/L and a PGI concentration [4, 20] of 84.3 µg/L. It also gave a PGI concentration [4, 21] of 110.3 µg/L, a PGI concentration [4, 22] of 134.8 µg/L and a PGI concentration [4, 23] of 109.4 µg/L. It also gave a PGI concentration [4, 24] of 135.6 µg/L, a PGI concentration [4, 25] of 94.9 µg/L and a PGI concentration [4, 26] of 115.4 µg/L. For the same molecule, the PGI concentration [4, 27] was 94.7 µg/L, the PGI concentration [4, 28] was 102.1 µg/L and the “effect of adding DMSO on the activity” value [4] was “essentially no effect”.

B1: pepsinogen II (protein, UniProt P20142 17-388, looked up)
pro-form: AVVKVPLKKFKSIRETMKEKGLLGEFLRTHKYDPAWKYRFGDLSVTYEPMAYMDAAYFGEISIGTPPQNFLVLFDTGSSNLWVPSVYCQSQACTSHSRFNPSESSTYSTNGQTFSLQYGSGSLTGFFGYDTLTVQSIQVPNQEFGLSENEPGTNFVYAQFDGIMGLAYPALSVDEATTAMQGMVQEGALTSPVFSVYLSNQQGSSGGAVVFGGVDSSLYTGQIYWAPVTQELYWQIGIEEFLIGGQASGWCSEGCQAIVDTGTSLLTVPQQYMSALLQATGAQEDEYGQFLVNCNSIQNLPSLTFIINGVEFPLPPSSYILSNNGYCTVGVEPTYLSSQNGQPLWILGDVFLRSYYSVYDLGNNRVGFATAA
modifications: pro-form
notes: analyte determined from serum or plasma sample
With B1 the “time for which activity is retained” value [2] was “many days”, the PGII concentration ([3]; serum sample PL411s, 0% DMSO) was 32.8 µg/L and the PGII concentration ([3]; serum sample PL411s, 5% DMSO) was 33.6 µg/L. The PGII concentration ([3]; serum sample PL420b, 0% DMSO) was 6.3 µg/L, the PGII concentration ([3]; serum sample PL420b, 5% DMSO) was 5.7 µg/L and the PGII concentration ([3]; serum sample PL426s, 0% DMSO) was 3.5 µg/L. For the same molecule, the PGII concentration ([3]; serum sample PL426s, 5% DMSO) was 3.1 µg/L, the PGII concentration ([3]; serum sample PL438s, 0% DMSO) was 13.6 µg/L and the PGII concentration ([3]; serum sample PL438s, 5% DMSO) was 12.8 µg/L. It also gave a PGII concentration ([3]; serum sample PL439s, 0% DMSO) of 5.7 µg/L, a PGII concentration ([3]; serum sample PL439s, 5% DMSO) of 5.2 µg/L and a PGII concentration ([3]; serum sample PL447b, 0% DMSO) of 4.9 µg/L. The PGII concentration ([3]; serum sample PL447b, 5% DMSO) was 4.6 µg/L, the PGII concentration ([3]; serum sample PL454s, 0% DMSO) was 7.7 µg/L and the PGII concentration ([3]; serum sample PL454s, 5% DMSO) was 7.3 µg/L. It also gave a PGII concentration ([3]; serum sample PL455b, 0% DMSO) of 7.3 µg/L, a PGII concentration ([3]; serum sample PL455b, 5% DMSO) of 7.1 µg/L and a PGII concentration ([3]; serum sample PL457b, 0% DMSO) of 7.1 µg/L. It also gave a PGII concentration ([3]; serum sample PL457b, 5% DMSO) of 6 µg/L, a PGII concentration ([3]; serum sample PL458s, 0% DMSO) of 6.7 µg/L and a PGII concentration ([3]; serum sample PL458s, 5% DMSO) of 5.8 µg/L. It also gave a PGII concentration [4, 9] of 6.8 µg/L, a PGII concentration [4, 10] of 8.3 µg/L and a PGII concentration [4, 11] of 6.6 µg/L. The PGII concentration [4, 12] was 7.7 µg/L, the PGII concentration [4, 13] was 5 µg/L and the PGII concentration [4, 14] was 6.4 µg/L. For the same molecule, the PGII concentration [4, 15] was 4.9 µg/L, the PGII concentration [4, 16] was 6.2 µg/L and the PGII concentration [4, 17] was 4.9 µg/L. It also gave a PGII concentration [4, 18] of 5.8 µg/L, a PGII concentration [4, 19] of 4.8 µg/L and a PGII concentration [4, 20] of 5.3 µg/L. The PGII concentration [4, 21] was 5.7 µg/L, the PGII concentration [4, 22] was 7.3 µg/L and the PGII concentration [4, 23] was 5.7 µg/L. For the same molecule, the PGII concentration [4, 24] was 6.9 µg/L, the PGII concentration [4, 25] was 6.4 µg/L and the PGII concentration [4, 26] was 8.5 µg/L. The PGII concentration [4, 27] was 6.4 µg/L, the PGII concentration [4, 28] was 7.9 µg/L and the “effect of adding DMSO on the activity” value [4] was “essentially no effect”.

Reference: US20070243558A1, “Peptide Stabilization” (priority 2004, published 2007)
